Experimental findings from article PMC4818849, “In vitroassembly of the bacterial actin protein MamK from ‘CandidatusMagnetobacterium casensis’ in the phylumNitrospirae” (Protein & Cell, 2016) are described below.

Substrate in the data set: Nc1ncnc2c1ncn2[C@@H]1O[C@H](COP(=O)(O)OP(=O)(O)OP(=O)(O)O)[C@@H](O)[C@H]1O
The data set can be described thus: ATPase, malachite green phosphate release, Lineweaver-Burk plot. The data set is classed as biochemical, Magnetobacterium casense (SeqCode). The following applies: assay buffer of b46: 20 mmol/L Tris-HCl pH 8.0, 0.2 mmol/L MgCl2, 50 mmol/L NaCl, 37°C, kinetic details in supplement. From the text: ATPase, malachite green phosphate release, Lineweaver-Burk plot on MamK from 'Candidatus Magnetobacterium casensis' (Mcas MamK) | we calculated the Vmax and Km of the ATPase activity as […]

B1: MamK from 'Candidatus Magnetobacterium casensis' (Mcas MamK) (Magnetobacterium casense (SeqCode)) (protein)
chain: MTKTKILNIGIDLGTSRSVIACDNGVRTFVPSYVGFPKDAVSRKMFGRDVIFGDEAIKHRMALNLFRPFDKGMIKYADTNPESKEYKNALYVAKALLQHLVDLAKEGDQERGVDYIVRGVIGAPALASRKNRKALLDVARGILDGVMISSEPFTVAYGLNLLSNALIIDIGAGTVDLCRMHGTIPTDEDQITTFKAGDYVDQAFYDLITKKYKDVNLTINMVKKFKEENAFISSQGERVFIEVPVKGKPEKRDITDELRQACRMIVPDIVEGIRKLIAEYDPEFQNNLKQNVVLAGGGSQIIGLRKEIEDYMIETLGYGKVIKIEEPLFAGANGAMMLCKDMPDEYWDEVSKR
notes: full-length mamK from Mcas genomic DNA in pET28a and pET22b, E. coli C43 (DE3); His tag removed leaving three N-terminal residues (tagged forms also examined); filament-forming
With B1, the Michaelis constant (Km) is 71.02 µM and the catalytic constant (kcat) was found to be 0.0633 s⁻¹.

As a reminder, the Km is the substrate concentration at which the rate is half of its maximum. As usually defined, the kcat is the maximal rate divided by the concentration of active sites.
